Measurements from patent publication US7442375B2, “Compositions of beta-defensin inducing agents” (Case Western Reserve University, priority 2002, dated 2008).

Legend:
Assay type in all cases: cell-based
HIV-1 X4 B-HXB2 [1] = conditions: virus preincubated 1 h with hBD in 10 mM PB; GHOST cells 48 h; GFP fluorescence
Description: (§1) HIV-1 strains (X4 HXB2 and R5 93US142) were incubated in 10 mM PB with increasing concentrations of hBD and used to infect GHOST X4/R5 cells. (a) Qualitative determination of HIV-1 infection, measured by GFP fluorescence, in the absence (−C) and presence (+C) of virus preincubated in 10 mM PB. (b) Anti-HIV-1 activity of hBD in GHOST X4/R5 cells using fluorescence microscopy. (c) Anti-HIV-1 activity of hBD measured by RT activity in cell-free culture supernatant, relative to the positive control (i.e., HIV-1 infection in the absence of hBD). (d) Antiretroviral activity of hBD against CXCR4- and CCR5-tropic HIV-1 strains in three different environments: DMEM+10% FBS (complete medium); DMEM alone (Medium no FBS); 10 mM PB. Viruses were incubated with 20 μg/ml of each hBD for 1 h in each condition and used to infect CEM X4/R5 cells as described. Results are representative of three independent experiments.
(§2) HIV-1 isolates were incubated with increasing concentrations (5-40 μg/ml) of hBD-1, -2, and -3, in three different conditions: high salt complete medium (RPMI-1640 or DMEM supplemented with 10% fetal bovine serum, FBS); high salt medium in the absence of FBS; or low salt medium (10 mM phosphate buffer), 37° C. for 1 h. Respective mixtures were used to infect PBMC, Ghost X4/R5 or CEM X4/R5 cells at an MOI of […]. After 2 h incubation at 37° C., 5% CO2, cells were washed three times with phosphate-buffered saline (PBS) and cultured in complete medium for 48 h. In the case of Ghost X4/R5 cells, these were washed, resuspended in PBS, and analyzed by fluorescence microscopy for GFP expression as described [Morner et al.]. Cell-free supernatants from PBMC, Ghost X4/R5 and CEM X4/R5 cultures were used to monitor infectivity by the reverse transcriptase (RT) assay [Quinones-Mateu et al.]. The 50% inhibitory concentration (IC50) of each hBD was determined using X4 or R5 HIV-1 isolates. Viruses (0.01 MOI) were incubated with increasing concentrations of hBD-1, -2, and 3 (up to 40 µg/ml) in low salt medium for 1 h and used to infect CEM X4/R5 cells. After 2 h incubation at 37° C., 5% CO2, cells were washed twice with PBS and cultured in complete medium. Supernatant samples were removed on day 5 post-infection and virus production was measured using […] the RT assay [Id.]. Cytotoxicity of hBD was quantified by determining the number of viable cells using a tetrazolium-based colorimetric (MTT) assay [Pauwels et al.].
(§3) Since the antibacterial activity of beta-defensins is sensitive to high salt and serum concentrations, the anti-HIV-1 activity of hBD was initially evaluated in a low salt, serum free environment, mimicking oral mucosal conditions [Mandel et al.]. Two HIV-1 isolates (X4 B-HXB2 and R5 B-93US142) were preincubated for 1 h with increasing concentrations of recombinant hBD-1, -2, and -3, in 10 mM phosphate buffer (PB). GHOST CCR5/CXCR4 cells were then exposed to the mixtures for 48 h in complete medium. […] When CXCR4- and CCR5-tropic HIV-1 strains were preincubated with beta-defensins in high salt medium (DMEM) supplemented with 10% FBS, no antiviral effect was detected (FIG. 4d). However, preincubation in DMEM without FBS inhibited replication of X4, but not R5, HIV-1 isolates (FIG. 4d). Under low salt conditions (i.e., 10 mM PB, no FBS) the 50% inhibitory concentration for both agents against X4 and R5 viruses ranged from 9 to 19 μg/ml and 20 to 40 μg/ml, respectively.

HIV-1 R5 B-93US142 = conditions: virus preincubated 1 h with hBD in 10 mM PB; GHOST cells 48 h; GFP fluorescence
Description: as §1, §2, §3

HIV-1 X4 B-HXB2 [2] = assay: hBD-virion interaction: virions incubated with hBD, pelleted, washed, used to infect GHOST X4/R5 cells
Description: (§4) (a) CXCR4 tropic HXB2 and CCR5 tropic 97ZA003 HIV-1 strains were incubated with 20 μg/ml hBD-1, -2, or -3 in 10 mM PB for 1 h. Virions were pelleted, washed extensively with PBS and used to infect GHOST X4/R5 cells. RT activity was measured 48 h post-infection. The final two columns represent an additional 20 μg/ml of hBD-2 or -3 during infection. (b) Immunoelectron microscopy analysis showing the interaction of hBD-2 and -3 with HIV-1 and with MT4 cell membrane. X4 HIV-1 HXB2 strain and MT4 cells were incubated with hBD-2 or -3 (20 μg/ml), 37° C., 1 h. Polyclonal anti-hBD-2 or -3 antibodies were added, followed by addition of secondary IgG conjugated with 10-nm gold particles. Arrows indicate hBD-2 and -3 localization to virions and cell membrane.
(§5) In order to verify a direct hBD-virion interaction, the X4 B-HXB2 and R5-C-97ZA003 HIV-1 strains was incubated with 20 μg/ml of each hBD in 10 mM PB for 1 h, followed by pelleting and extensive washing. Virions were then used to infect GHOST X4/R5 cells. […] To further define these interactions, MT4 cells, infected with the CXCR4 tropic B-HXB2, were incubated with hBD-2 or -3 in RPMI, followed by the addition of anti-hBD-2 or -3 antibodies and goat anti-rabbit IgG conjugated with 10-nm gold particles.

HIV-1 R5-C-97ZA003 = assay: as above; conditions: 20 μg/ml in 10 mM PB 1 h; RT activity 48 h post-infection
Description: as §4, §5

B1: hBD-3: Recombinant human β-defensin 3 produced using an hBD-3-His tag fusion construct cloned into pET-30c; exemplary sequence SEQ ID NO:15 (protein, listed as Homo sapiens)
chain: MRIHYLLFALLFLFLVPVPGHGGIINTLQKYYCRVRGGRCAVLSCLPKEEQIGKCSTRGRKCCRRKK
modifications: not fully specified (C-terminus); ends and bridges not checked
With B1 the anti-HIV-1 activity (HIV-1 X4 B-HXB2 [1]) was “showed anti-HIV-1 activity”, the anti-HIV-1 activity (HIV-1 R5 B-93US142) was “showed anti-HIV-1 activity” and the “anti-HIV-1 effect after pelleting and extensive washing of virions” value (HIV-1 X4 B-HXB2 [2]; 20 μg/ml in 10 mM PB 1 h, RT activity 48 h post-infection) was “maintained after washing”. For the same molecule, the “effect of subsequent addition of hBD to the cell-virus mixture” value (HIV-1 X4 B-HXB2 [2]; additional 20 μg/ml during infection, enhancement only against the CXCR4-tropic strain) was “enhanced anti-HIV-1 activity” and the “anti-HIV-1 effect after pelleting and extensive washing of virions” value (HIV-1 R5-C-97ZA003) was “maintained after washing”.
